For assay [1], the target named is isolated K287C/K294C αL I-domain (V130-A338) expressed on K562 cells by the PDGF receptor transmembrane domain (human) (UniProt P20701). As to the kind of experiment: flow cytometry on K562 transfectants. (In general: A flow cytometer gives signals particle by particle.)
Assay [2] deals with LFA-1 mutant K287C/K294C (αL K287C/K294C with β2) on 293T or K562 transfectants (human) (UniProt P05107). As to the kind of experiment: flow cytometry on transfectants.
The target is the same in assay [3]. Description: flow cytometry, K562, normalized to TS2/4.
Assay [4] concerns the target LFA-1 mutant L289C/K294C (αL L289C/K294C with β2) on 293T or K562 transfectants (human) (UniProt P05107). Description: flow cytometry, K562, normalized to TS2/4.
The target of assay [5] is LFA-1 single cysteine substitution mutant K294C on 293T transfectants (human) (UniProt P05107). As to the kind of experiment: flow cytometry, 293T, normalized to TS2/4.
The target of assay [6] is LFA-1 single cysteine substitution mutant K287C on 293T transfectants (human) (UniProt P05107). As to the kind of experiment: flow cytometry, 293T, normalized to TS2/4.
The target in assay [7] is LFA-1 single cysteine substitution mutant L289C on 293T transfectants (human) (UniProt P05107). Description: flow cytometry, 293T, normalized to TS2/4.
Assay [8] deals with LFA-1 mutant K287C/K294C (αL K287C/K294C with β2) on 293T or K562 transfectants (human) (UniProt P05107). As to the kind of experiment: flow cytometry, 293T, normalized to TS2/4.
Assay [9] deals with LFA-1 mutant L289C/K294C (αL L289C/K294C with β2) on 293T or K562 transfectants (human) (UniProt P05107). Description: flow cytometry, 293T, normalized to TS2/4.
The target of assay [10] is LFA-1 mutant K287C/K294C (αL K287C/K294C with β2) on 293T or K562 transfectants (human) (UniProt P05107). Description: flow cytometry, K562, normalized to TS1/22.
For assay [11], the target named is Mac-1 mutant Q163C/Q309C (αM Q163C/Q309C with β2) on 293T or K562 transfectants (human) (UniProt P05107). Description: flow cytometry on K562 stable transfectants with intact Mac-1, row printed 'Q163/Q309C'.
The target of assay [12] is wild-type Mac-1 (αMβ2) on 293T or K562 transfectants (human) (UniProt P05107). Description: flow cytometry on K562 stable transfectants with intact Mac-1, row 'Wild-type'.
In assay [13] the target is Mac-1 mutant D294C/Q311C (with β2) on K562 transfectants (human) (UniProt P05107). Description: flow cytometry on K562 stable transfectants with intact Mac-1, row 'D294C/Q311C'.
Assay [14] concerns the target LFA-1 mutant K287C/K294C (αL K287C/K294C with β2) on 293T or K562 transfectants (human) (UniProt P05107). As to the kind of experiment: inhibition of adhesion of K562 transfectants to immobilized ICAM-1.
For assay [15], the target named is wild-type LFA-1 (αL/β2 complex) expressed on 293T or K562 transfectants (human) (UniProt P05107). As to the kind of experiment: inhibition of adhesion of K562 transfectants (+CBRLFA-1/2) to immobilized ICAM-1.
The target in assay [16] is isolated wild-type αL I-domain (V130-A338) expressed on K562 cells by the PDGF receptor transmembrane domain (human). Description: flow cytometry on K562 transfectants, panel 'WT I-domain (#2)'; nothing is printed after the point.
isolated wild-type αL I-domain (V130-A338) expressed on K562 cells by the PDGF receptor transmembrane domain (human), sequence (P09619 other isoform, or with tags, fused parts or gaps): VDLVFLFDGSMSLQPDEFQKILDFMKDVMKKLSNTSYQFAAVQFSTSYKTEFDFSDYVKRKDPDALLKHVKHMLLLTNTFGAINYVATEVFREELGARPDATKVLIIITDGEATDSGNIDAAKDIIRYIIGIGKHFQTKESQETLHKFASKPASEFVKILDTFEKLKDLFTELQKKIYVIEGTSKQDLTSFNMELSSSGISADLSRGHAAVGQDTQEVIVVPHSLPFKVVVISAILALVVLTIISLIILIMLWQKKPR
Assay [17] deals with isolated K287C/K294C αL I-domain (V130-A338) expressed on K562 cells by the PDGF receptor transmembrane domain (human) (UniProt P20701). Description: flow cytometry on K562 transfectants, panel 'K287C/K294C I-domain (#2)'.
Assay [18] has the same target. As to the kind of experiment: flow cytometry on K562 transfectants, panel 'K287C/K294C I-domain (#1)'.
For assay [19], the target named is wild-type LFA-1 (αL/β2 complex) expressed on 293T or K562 transfectants (human) (UniProt P05107). As to the kind of experiment: flow cytometry on K562 transfectants, panel 'intact LFA-1'.
The target in assay [20] is isolated L289C/K294C αL I-domain (V130-A338) expressed on K562 cells by the PDGF receptor transmembrane domain (human) (UniProt P20701). Description: flow cytometry on K562 transfectants, panel 'L289C/K294C I-domain (#2)'.
isolated L289C/K294C αL I-domain (V130-A338) expressed on K562 cells by the PDGF receptor transmembrane domain (human), sequence (P20701 155-363 L314C/K319C limits assumed): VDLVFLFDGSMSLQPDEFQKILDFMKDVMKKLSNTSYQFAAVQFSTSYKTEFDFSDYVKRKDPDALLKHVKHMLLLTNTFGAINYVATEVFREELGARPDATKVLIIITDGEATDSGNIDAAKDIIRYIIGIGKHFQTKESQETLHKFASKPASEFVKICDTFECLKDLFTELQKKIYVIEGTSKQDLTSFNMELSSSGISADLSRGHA
Assay [21] has the same target. As to the kind of experiment: flow cytometry on K562 transfectants, panel 'L289C/K294C I-domain (#1)'.
For assay [22], the target named is isolated wild-type αL I-domain (V130-A338) expressed on K562 cells by the PDGF receptor transmembrane domain (human). As to the kind of experiment: flow cytometry on K562 transfectants, panel 'WT I-domain (#1)'.
Assay [23] has as its target recombinant ICAM-1 Fc chimera immobilized on the BIAcore sensor chip (UniProt P05362). As to the kind of experiment: BIAcore; Kon calculated by Koff/KD; Table 6 kinetic study; Kon calculated as Koff/KD from steady-state data, very weak binding.
Assay [24] has the same target. Description: BIAcore; fit of dissociation phase, 1:1 model; Table 6 kinetic study; Koff from a 1:1 fit of the dissociation phase.
The target is the same in assay [25]. As to the kind of experiment: BIAcore; Scatchard plot at steady state; Table 6 kinetic study; KD from Scatchard plots at steady state, millimolar affinity. On the technique in general: In SPR one partner is held on a chip, and binding of the other changes the refractive index at the surface.
Assay [26] concerns the target wild-type LFA-1 (αL/β2 complex) expressed on 293T or K562 transfectants (human) (UniProt P05107). As to the kind of experiment: flow cytometry, K562 WT (#22), ICAM-1-IgA 100 µg/ml, FITC anti-human IgA, taken after paragraph 201 as ICAM-1-IgA without CBRLFA-1/2; left column of this row, taken as no ICAM-1-IgA: 3.58.
The target in assay [27] is LFA-1 mutant L289C/K294C (αL L289C/K294C with β2) on 293T or K562 transfectants (human) (UniProt P05107). As to the kind of experiment: flow cytometry, K562 L289C K294C (#6), ICAM-1-IgA 100 µg/ml, FITC anti-human IgA, taken after paragraph 201 as ICAM-1-IgA without CBRLFA-1/2; left column of this row, taken as no ICAM-1-IgA: 4.68.
Assay [28] concerns the target LFA-1 mutant K287C/K294C (αL K287C/K294C with β2) on 293T or K562 transfectants (human) (UniProt P05107). As to the kind of experiment: flow cytometry, K562 K287C K294C (#7), ICAM-1-IgA 100 µg/ml, FITC anti-human IgA, taken after paragraph 201 as ICAM-1-IgA without CBRLFA-1/2; left column of this row, taken as no ICAM-1-IgA: 3.59.
For assay [29], the target named is wild-type LFA-1 (αL/β2 complex) expressed on 293T or K562 transfectants (human) (UniProt P05107). As to the kind of experiment: flow cytometry, K562 WT (#22), ICAM-1-IgA 100 µg/ml, FITC anti-human IgA, taken after paragraph 201 as ICAM-1-IgA with CBRLFA-1/2 10 µg/ml; left column of this row, taken as no ICAM-1-IgA: 3.58.
Assay [30] concerns the target LFA-1 mutant L289C/K294C (αL L289C/K294C with β2) on 293T or K562 transfectants (human) (UniProt P05107). Description: flow cytometry, K562 L289C K294C (#6), ICAM-1-IgA 100 µg/ml, FITC anti-human IgA, taken after paragraph 201 as ICAM-1-IgA with CBRLFA-1/2 10 µg/ml; left column of this row, taken as no ICAM-1-IgA: 4.68.
The target of assay [31] is LFA-1 mutant K287C/K294C (αL K287C/K294C with β2) on 293T or K562 transfectants (human) (UniProt P05107). Description: flow cytometry, K562 K287C K294C (#7), ICAM-1-IgA 100 µg/ml, FITC anti-human IgA, taken after paragraph 201 as ICAM-1-IgA with CBRLFA-1/2 10 µg/ml; left column of this row, taken as no ICAM-1-IgA: 3.59.

As a reminder, the % inhibition is the change of the read-out against control, counted positive when it falls. A lower % inhibition goes with a response near the control. Usually kon stands for the second-order rate constant of association. As usually defined, the koff is the first-order rate constant of dissociation. In general, Kd refers to the concentration at which binding is half-saturated.

soluble ICAM-1-IgA chimera containing the 5 Ig domains of human ICAM-1, sequence (P05362 28-480, stated change not applied): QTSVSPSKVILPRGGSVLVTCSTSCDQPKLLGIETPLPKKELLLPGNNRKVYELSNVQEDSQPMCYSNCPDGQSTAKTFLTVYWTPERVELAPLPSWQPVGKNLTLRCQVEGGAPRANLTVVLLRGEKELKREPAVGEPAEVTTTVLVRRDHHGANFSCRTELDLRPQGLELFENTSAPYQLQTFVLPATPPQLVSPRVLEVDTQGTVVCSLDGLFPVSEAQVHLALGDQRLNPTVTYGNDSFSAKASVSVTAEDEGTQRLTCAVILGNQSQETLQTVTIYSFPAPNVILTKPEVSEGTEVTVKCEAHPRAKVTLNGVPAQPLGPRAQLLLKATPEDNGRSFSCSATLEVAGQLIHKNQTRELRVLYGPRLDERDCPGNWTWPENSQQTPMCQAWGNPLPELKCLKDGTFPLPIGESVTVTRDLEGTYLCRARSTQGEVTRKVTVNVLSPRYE
recombinant ICAM-1 Fc chimera immobilized on the BIAcore sensor chip, sequence (P05362 28-480 limits assumed, stated change not applied): as the sequence (P05362 28-480, stated change not applied) above
isolated K287C/K294C αL I-domain (V130-A338) expressed on K562 cells by the PDGF receptor transmembrane domain (human), sequence (P20701 155-363 K312C/K319C limits assumed): as the sequence (P20701 155-363 L314C/K319C limits assumed) above, with K158C, C160L counted along it

In assay [1], monoclonal antibody CBRLFA-1/1 registered a % of binding to the wild-type I-domain (% of wild-type I-domain) of 80. In assay [2], the % of wild-type binding (% of wild-type) was in the range of 40 to 50. Moreover, the % wild-type binding (% of wild-type) stood at 55.5 in assay [3]; 118 in [4]; 89.4 in [5]; 86.1 in assay [6]; 93.3 in assay [7]; 43.6 in assay [8]. For the same substance, in assay [9], the % wild-type binding (% of wild-type) worked out at 95.9.
monoclonal antibody CBRLFA-1/9 registered a % wild-type binding (% of wild-type) in assay [10] of 84.7.
In the case of monoclonal antibody CBRM1/5, the results for the mean fluorescent intensity in [11], in [12] and in assay [13] were 208, 25 and 262, respectively.
Consider monoclonal antibody CBRM1/32, for which the mean fluorescent intensity in assay [11] amounted to 115; in assay [12], 120; in assay [13], 81.
Turning to monoclonal antibody YFC51, the % wild-type binding (% of wild-type) in assay [3] was 101; in assay [4] it was 111; in assay [8] it was 103; in assay [9], 95.1. Moreover, the % inhibition in assay [14] came out at 0.08%; in assay [15] it was 98.4%.
For the substance “mouse anti-human αL (CD11a) monoclonal antibody TS1/22”, the mean fluorescent intensity in [16] stood at 205; in [17] it was 84.6; in assay [18], 66.3; in assay [19], 104; in [20], 151; in assay [21] it was 71.1. In assay [22], this substance gave a mean fluorescent intensity of 67.3. For the same substance, the % wild-type binding (% of wild-type) in assay [3] is 93.1; in assay [4], 110; in assay [5], 92.2; in assay [6] it was 103; in assay [7] it was 96.2; in assay [8], 95.8. The % wild-type binding (% of wild-type) in assay [9] was found to be 91.
With “mouse anti-human αL (CD11a) monoclonal antibody TS2/14”, the % wild-type binding (% of wild-type) in assay [3] was 95.4; in assay [4], 103; in assay [5], 103; in [6], 103; in [7], 100; in assay [8], 85.5. The % wild-type binding (% of wild-type) in assay [9] was determined as 83.3.
“recombinant soluble wild-type αL I-domain (G128 to Y307), made in E. coli (from UniProt P20701 153-332) (receptor)”: the kon in [23] is 2220 M⁻¹ s⁻¹. For the same substance, the off-rate (koff) in assay [24] was found to be 3 s⁻¹. In addition, in assay [25], the Kd stood at 1350 µM.
In the case of “soluble ICAM-1-IgA chimera containing the 5 Ig domains of human ICAM-1 (from UniProt P05362 28-480) (Fc fusion)”, the mean fluorescent intensity stood at 5.26 in assay [26]; 5.36 in assay [27]; 24.8 in assay [28]; 4.89 in [29]; 4.32 in assay [30]; 41.3 in assay [31].

The record behind these values is patent US7674604.
